Laboratory results taken from patent US5847088A, “Antibodies specific for platelet-activating factor acetylhydrolase” (ICOS Corporation, priority 1995, dated 1998).

Test: PAF-AH activity of PAF-AH products expressed in E. coli (hydrolysis of 3H-acetate from [acetyl-3H] PAF)
Assay type: biochemical
Conditions: for PAF-AH activity: amino acid substitution products expressed in E. coli

B1: C291S: PAF-AH analog, Cys291 mutated to serine (protein)
chain: MVPPKLHVLFCLCGCLAVVYPFDWQYINPVAHMKSSAWVNKIQVLMAAASFGQTKIPRGNGPYSVGCTDLMFDHTNKGTFLRLYYPSQDNDRLDTLWIPNKEYFWGLSKFLGTHWLMGNILRLLFGSMTTPANWNSPLRPGEKYPLVVFSHGLGAFRTLYSAIGIDLASHGFIVAAVEHRDRSASATYYFKDQSAAEIGDKSWLYLRTLKQEEETHIRNEQVRQRAKECSQALSLILDIDHGKPVKNALDLKFDMEQLKDSIDREKIAVIGHSFGGATVIQTLSEDQRFRSGIALDAWMFPLGDEVYSRIPQPLFFINSEYFQYPANIIKMKKCYSPDKERKMITIRGSVHQNFADFTFATGKIIGHMLKLKGDIDSNVAIDLSNKASLAFLQKHLGLHKDFDQWDCLIEGDDENLIPGTNINTTNQHIMLQNSSGIEKYN
Q: Which PAF-AH activity does the source give for B1 here?
A: The PAF-AH activity was “+ (1-10 U/ml/OD600 activity)”.

B2: C334S: PAF-AH analog, cysteine mutated to serine (protein)
chain: MVPPKLHVLFCLCGCLAVVYPFDWQYINPVAHMKSSAWVNKIQVLMAAASFGQTKIPRGNGPYSVGCTDLMFDHTNKGTFLRLYYPSQDNDRLDTLWIPNKEYFWGLSKFLGTHWLMGNILRLLFGSMTTPANWNSPLRPGEKYPLVVFSHGLGAFRTLYSAIGIDLASHGFIVAAVEHRDRSASATYYFKDQSAAEIGDKSWLYLRTLKQEEETHIRNEQVRQRAKECSQALSLILDIDHGKPVKNALDLKFDMEQLKDSIDREKIAVIGHSFGGATVIQTLSEDQRFRCGIALDAWMFPLGDEVYSRIPQPLFFINSEYFQYPANIIKMKKSYSPDKERKMITIRGSVHQNFADFTFATGKIIGHMLKLKGDIDSNVAIDLSNKASLAFLQKHLGLHKDFDQWDCLIEGDDENLIPGTNINTTNQHIMLQNSSGIEKYN
Q: Which PAF-AH activity does the source give for B2 here?
A: Its PAF-AH activity is “++++ (wild type PAF-AH activity of about 40-60 U/ml/OD600)”.

B3: C407S: PAF-AH analog, cysteine mutated to serine (protein)
chain: MVPPKLHVLFCLCGCLAVVYPFDWQYINPVAHMKSSAWVNKIQVLMAAASFGQTKIPRGNGPYSVGCTDLMFDHTNKGTFLRLYYPSQDNDRLDTLWIPNKEYFWGLSKFLGTHWLMGNILRLLFGSMTTPANWNSPLRPGEKYPLVVFSHGLGAFRTLYSAIGIDLASHGFIVAAVEHRDRSASATYYFKDQSAAEIGDKSWLYLRTLKQEEETHIRNEQVRQRAKECSQALSLILDIDHGKPVKNALDLKFDMEQLKDSIDREKIAVIGHSFGGATVIQTLSEDQRFRCGIALDAWMFPLGDEVYSRIPQPLFFINSEYFQYPANIIKMKKCYSPDKERKMITIRGSVHQNFADFTFATGKIIGHMLKLKGDIDSNVAIDLSNKASLAFLQKHLGLHKDFDQWDSLIEGDDENLIPGTNINTTNQHIMLQNSSGIEKYN
Q: With B3 as the molecule, how does the PAF-AH activity read?
A: Its PAF-AH activity is “+++ (about 20-40 U/ml/OD600 activity)”.

B4: V279F: PAF-AH with phenylalanine for valine at position 279, mutation of PAF-AH deficient patients (protein)
chain: MVPPKLHVLFCLCGCLAVVYPFDWQYINPVAHMKSSAWVNKIQVLMAAASFGQTKIPRGNGPYSVGCTDLMFDHTNKGTFLRLYYPSQDNDRLDTLWIPNKEYFWGLSKFLGTHWLMGNILRLLFGSMTTPANWNSPLRPGEKYPLVVFSHGLGAFRTLYSAIGIDLASHGFIVAAVEHRDRSASATYYFKDQSAAEIGDKSWLYLRTLKQEEETHIRNEQVRQRAKECSQALSLILDIDHGKPVKNALDLKFDMEQLKDSIDREKIAVIGHSFGGATFIQTLSEDQRFRCGIALDAWMFPLGDEVYSRIPQPLFFINSEYFQYPANIIKMKKCYSPDKERKMITIRGSVHQNFADFTFATGKIIGHMLKLKGDIDSNVAIDLSNKASLAFLQKHLGLHKDFDQWDCLIEGDDENLIPGTNINTTNQHIMLQNSSGIEKYN
Q: Which “PAF-AH activity of mutant expression construct” value (E. coli, control construct lacking the mutation fully active) does the source give for B4 here?
A: Its value is “no PAF-AH activity”.
